According to the RNAGym collection of RNA variant scans (doi:10.7554/elife.80360):

B1: HDV Ribozyme (parent)
chain: GGCCGGCAUGGUCCCAGCCUCCUCGCUGGCGCCGGCUGGGCAACAUUCCGAGGGGACCGUCCCCUCGGUAAUGGCGAAUGGGACCCA

Variants of: B1
Test: self-cleavage, relative activity (ratio to wild type); higher = more cleavage; co-transcriptional

Point of comparison: GGCGGGCAUGGUCCCAGCCUCCUCGCUGGCGCCGGCUGGGCAACAUUCCGAGGGGACCGUCCCCUCGGUAAUGGCGAACGGGACCCA [C4G U79C], self-cleavage 0.13. Against it:
- GGCGGGCAUGGUCCCAGCCUCCUCGCUGGCGCCGGCUUGGCAACAUUCCGAGGGGACCGUCCCCUCGGUAAUGGCGAAUGGGACCCA [C4G G38U] — lower, 0.0287
- GGCGGGCAUGGUCCCAGCCUCCUCGCUGGCGCCGGCUAGGCAACAUUCCGAGGGGACCGUCCCCUCGGUAAUGGCGAAUGGGACCCA [C4G G38A] — lower, 0
- GGCGGGCAUGGUCCCAGCCUCCUCGCUGGCGCCGGCUGGGCAACAUUCCGAGGGGACCGUCCCCUCGGUAAUGGCAAAUGGGACCCA [C4G G76A] — higher, 0.343
- GGCGGGCAUGGUCCCAGCCUCCUCGCUGGCGCCGGCUGGGCAACAUUCCGAGGGGACCGUCCCCUCGGUAAUGGCCAAUGGGACCCA [C4G G76C] — higher, 0.494
- GGCGGGCAUGGUCCCAGCCUCCUCGCUGGCGCCGGCAGGGCAACAUUCCGAGGGGACCGUCCCCUCGGUAAUGGCGAAUGGGACCCA [C4G U37A] — lower, 0.0462
- GGCGGGCAUGGUCCCAGCCUCCUCGCUGGCGCCGGCGGGGCAACAUUCCGAGGGGACCGUCCCCUCGGUAAUGGCGAAUGGGACCCA [C4G U37G] — lower, 0.0489
- GGCGGGCAGGGUCCCAGCCUCCUCGCUGGCGCCGGCUGGGCAACAUUCCGAGGGGACCGUCCCCUCGGUAAUGGCGAAUGGGACCCA [C4G U9G] — higher, 0.293
- GGCGGGCACGGUCCCAGCCUCCUCGCUGGCGCCGGCUGGGCAACAUUCCGAGGGGACCGUCCCCUCGGUAAUGGCGAAUGGGACCCA [C4G U9C] — higher, 0.19
- GGCGGGCAUGGUCCCAGCCUCCUCGCUGGCGCCGGCUGGGCAACAUUCCGAGGGCACCGUCCCCUCGGUAAUGGCGAAUGGGACCCA [C4G G55C] — higher, 0.185
- GGCGGGCAUGGUCCCAGCCUCCUCGCUGGCGCCGGCUGGGCAACAUUCCGAGGGUACCGUCCCCUCGGUAAUGGCGAAUGGGACCCA [C4G G55U] — higher, 0.376
- GGCGGGCAUGGUCCCAGCCUCCUCGCUGGCGCCGGCUGGGCAACAUUCCGAGGGGACCGUCCCCUCGGUAAUGGCGAAUUGGACCCA [C4G G80U] — lower, 0.0953
- GGCGGGCAUGGUCCCAGCCUCCUCGCUGGCGCCGGCUGGGCAACAUUCCGAGGGGACCGUCCCCUCGGUAAUGGCGAAUAGGACCCA [C4G G80A] — lower, 0.0203
- GGCGGGCAUGGUCCCAGCCUCCUCGCUGGCGCCGGCUGGGCAACAUUCCGAGGGGACCGUCCCCUCGGUAAUGGCGAAUCGGACCCA [C4G G80C] — lower, 0.0906
- GGCGGGCAUGGUCCCAGCCUCCUCGCUGGCGCCGACUGGGCAACAUUCCGAGGGGACCGUCCCCUCGGUAAUGGCGAAUGGGACCCA [C4G G35A] — lower, 0
- GGCGGGCAUGGUCCCAGCCUCCUCGCUGGCGCCGCCUGGGCAACAUUCCGAGGGGACCGUCCCCUCGGUAAUGGCGAAUGGGACCCA [C4G G35C] — the same, 0.13
- GGCGGGCAUGGUCCCAGCCUCCUCGCUGCCGCCGGCUGGGCAACAUUCCGAGGGGACCGUCCCCUCGGUAAUGGCGAAUGGGACCCA [C4G G29C] — lower, 0
- GGCGGGCAUGGUCCCAGCCUCCUCGCUGGCACCGGCUGGGCAACAUUCCGAGGGGACCGUCCCCUCGGUAAUGGCGAAUGGGACCCA [C4G G31A] — lower, 0.0639
- GGCGGGCAUGGUCCCAGCCUCCUCGCUGGCUCCGGCUGGGCAACAUUCCGAGGGGACCGUCCCCUCGGUAAUGGCGAAUGGGACCCA [C4G G31U] — lower, 0.0282
- GGCGGGCAUGGUCCCAGCCUCCUCGCUGGCGCCGGCUGGGCAACAUUCCGAGGCGACCGUCCCCUCGGUAAUGGCGAAUGGGACCCA [C4G G54C] — higher, 0.213
- GGCGGGCAUGCUCCCAGCCUCCUCGCUGGCGCCGGCUGGGCAACAUUCCGAGGGGACCGUCCCCUCGGUAAUGGCGAAUGGGACCCA [C4G G11C] — lower, 0
- GGCGGGCAUGAUCCCAGCCUCCUCGCUGGCGCCGGCUGGGCAACAUUCCGAGGGGACCGUCCCCUCGGUAAUGGCGAAUGGGACCCA [C4G G11A] — lower, 0.104
- GGCGGACAUGGUCCCAGCCUCCUCGCUGGCGCCGGCUGGGCAACAUUCCGAGGGGACCGUCCCCUCGGUAAUGGCGAAUGGGACCCA [C4G G6A] — lower, 0
- GGCGGUCAUGGUCCCAGCCUCCUCGCUGGCGCCGGCUGGGCAACAUUCCGAGGGGACCGUCCCCUCGGUAAUGGCGAAUGGGACCCA [C4G G6U] — lower, 0.0237
- GGCGGGCAUGGUCCCAGCCUCCUCGCUGGCGCCGGCUGGGCAACAUUCCGAGGGGACCGUCCCCACGGUAAUGGCGAAUGGGACCCA [C4G U65A] — higher, 0.525
- GGCGGGCAUGGUCCCAGCCUCCUCGCUGGCGCCGGCUGGGCAACAUUCCGAGGGGACCGUCCCCUCGGUAAUUGCGAAUGGGACCCA [C4G G73U] — lower, 0.086
- GGCGGGCAUGGUCCCAGCCUCCUCGCUGGCGCCGGCUGGGCAACAUUCCGAGGGGACCGUCCCCUCGGUAAUGGCGAAAGGGACCCA [C4G U79A] — lower, 0.0536
- GGCGGGCAUGGUCCCAGCCUCCUCGCUGGCGCCGGCUGGGCAACAUUCCGAGGGGACCGUCCCCUCGGUAAUGGCGAAGGGGACCCA [C4G U79G] — lower, 0
- GGCGGGCAUGGUCCCAGCCUCCUCGCUGGCGCCGGCUGGUCAACAUUCCGAGGGGACCGUCCCCUCGGUAAUGGCGAAUGGGACCCA [C4G G40U] — higher, 0.381
- GGCGGGCAUGGUCCCAGCCUCCUCGCUGGCGCCGGCUGGCCAACAUUCCGAGGGGACCGUCCCCUCGGUAAUGGCGAAUGGGACCCA [C4G G40C] — lower, 0.128
- GGCGGGCAUGGUCCCAGCCUCCUCGCGGGCGCCGGCUGGGCAACAUUCCGAGGGGACCGUCCCCUCGGUAAUGGCGAAUGGGACCCA [C4G U27G] — higher, 0.268
- GGCGGGCAUGGUCCCAGCCUCCUCGCCGGCGCCGGCUGGGCAACAUUCCGAGGGGACCGUCCCCUCGGUAAUGGCGAAUGGGACCCA [C4G U27C] — lower, 0.0437
- GGCGGGCAUGGUCCCAGCCUCCUCGCAGGCGCCGGCUGGGCAACAUUCCGAGGGGACCGUCCCCUCGGUAAUGGCGAAUGGGACCCA [C4G U27A] — higher, 0.222
- GGCGGGCAUGGUCCCAGCCUCCACGCUGGCGCCGGCUGGGCAACAUUCCGAGGGGACCGUCCCCUCGGUAAUGGCGAAUGGGACCCA [C4G U23A] — higher, 0.47
- GGCGUGCAUGGUCCCAGCCUCCUCGCUGGCGCCGGCUGGGCAACAUUCCGAGGGGACCGUCCCCUCGGUAAUGGCGAAUGGGACCCA [C4G G5U] — lower, 0.0545
- GGCGAGCAUGGUCCCAGCCUCCUCGCUGGCGCCGGCUGGGCAACAUUCCGAGGGGACCGUCCCCUCGGUAAUGGCGAAUGGGACCCA [C4G G5A] — lower, 0.0519
- GGCGGGCAUGGUCCCAGCCUCCUCGCUUGCGCCGGCUGGGCAACAUUCCGAGGGGACCGUCCCCUCGGUAAUGGCGAAUGGGACCCA [C4G G28U] — lower, 0
- GGCGGGCAUGGUCCCAGCCUCCUCGCUAGCGCCGGCUGGGCAACAUUCCGAGGGGACCGUCCCCUCGGUAAUGGCGAAUGGGACCCA [C4G G28A] — lower, 0
- GGCGGGCAUGGUCCCAGCCUCCUCACUGGCGCCGGCUGGGCAACAUUCCGAGGGGACCGUCCCCUCGGUAAUGGCGAAUGGGACCCA [C4G G25A] — lower, 0.0256
- GGCGGGCAUGGUCCCAGCCUCCUCCCUGGCGCCGGCUGGGCAACAUUCCGAGGGGACCGUCCCCUCGGUAAUGGCGAAUGGGACCCA [C4G G25C] — lower, 0
- GGCGGGCAUGGUCCCAGCCUCCUCGCUGGCGCCGGCUGGGCAACAUUCCGAGGGGACCGUCCCCUCGGUAAUGGCGAAUGCGACCCA [C4G G81C] — lower, 0.0767
- GGCGGGCAUGGUCCCAGCCUCCUCGCUGGCGCCGGCUGGGCAACAUUCCGAGGGGACCGUCCCCUCGGUAAUGGCGAAUGUGACCCA [C4G G81U] — lower, 0.0554
- GGCGGGCAUGGUCCCAGCCUCCUCGCUGGCGCCCGCUGGGCAACAUUCCGAGGGGACCGUCCCCUCGGUAAUGGCGAAUGGGACCCA [C4G G34C] — higher, 0.782
- GGCGGGCAUGGUCCCAGCCUCCUCGCUGGCGCCGGCUGGGCAACAUUCCGAGGGGACCGCCCCCUCGGUAAUGGCGAAUGGGACCCA [C4G U60C] — lower, 0.0875
- GGCGGGCAUGGUCCCAGCCUCCUCGCUGGCGCCGGCUGGGCAACAUUCCGAGGGGACCGACCCCUCGGUAAUGGCGAAUGGGACCCA [C4G U60A] — higher, 0.332
- GGCGGGCAUGGUCCCAGCCUCCUCGCUGGCGCCGGCUGGGCAACAUUCCGAGGGGACCGGCCCCUCGGUAAUGGCGAAUGGGACCCA [C4G U60G] — higher, 0.213
- GGCGGGCAUGGUCCCAGCCUCCUCGCUGGCGCCGGCUGGGCAACAUUCCGAGGGGACCGUCCCCUCGGUAAGGGCGAAUGGGACCCA [C4G U72G] — lower, 0.0519
- GGCGGGCAUGGUCCCAGCCUCCUCGCUGGCGCCGGCUGGGCAACAUUCCGAGGGGACCGUCCCCUCGGUAAAGGCGAAUGGGACCCA [C4G U72A] — lower, 0.0437
- GGCGGGCAUGGUCCCAGCCACCUCGCUGGCGCCGGCUGGGCAACAUUCCGAGGGGACCGUCCCCUCGGUAAUGGCGAAUGGGACCCA [C4G U20A] — lower, 0.0536
- GGCGGGCAUGGUCCCAGCCGCCUCGCUGGCGCCGGCUGGGCAACAUUCCGAGGGGACCGUCCCCUCGGUAAUGGCGAAUGGGACCCA [C4G U20G] — lower, 0
- GGCGGGCAUGGUCCCAGCCUCCUCGCUGGCGCCGGCUGGGCAACAUUCCGAGGGGACCCUCCCCUCGGUAAUGGCGAAUGGGACCCA [C4G G59C] — higher, 0.481
- GGCGGGCAUAGUCCCAGCCUCCUCGCUGGCGCCGGCUGGGCAACAUUCCGAGGGGACCGUCCCCUCGGUAAUGGCGAAUGGGACCCA [C4G G10A] — lower, 0.105
- GGCGGGCAUGGUCCCAGCCUCCUCGCUGGCGCCGGCUGGGCAACAUUCCGAGGGGACCGUCCCCUCGGUAAUGGCGAAUGGGACCAA [C4G C86A] — higher, 0.554
- GGCGGGCAUGGUCCCAGCCUCCUCGCUGGCGCCGGCUGGGCAACAUUCCGAGGGGACCGUCCCCUCGGUAAUGGCGAAUGGGACCGA [C4G C86G] — higher, 0.249
- GGCGGGCAUGGUCCCAGCCUCCUCGCUGGCGCCGGCUGGGCAACAUUCCGAGGGGACCGUCCCCUCGGUAAUGGCGAAUGGUACCCA [C4G G82U] — lower, 0.0421
- GGCGGGCAUGGUCCCAGCCUCCUCGCUGGCGCCGGCUGGGCAACAUCCCGAGGGGACCGUCCCCUCGGUAAUGGCGAAUGGGACCCA [C4G U47C] — higher, 0.346
- GGCGGGCAUGGUCCCAGCCUCCUCGCUGGCGCCGGCUGGGCAACAAUCCGAGGGGACCGUCCCCUCGGUAAUGGCGAAUGGGACCCA [C4G U46A] — lower, 0.0573
- GGCGGGCAUGGUCCCAGCCUCCUCGCUGGCGCCGGCUGGGCAACAUUCCGAGGGGACCGUCCCCUCGGUAAUGUCGAAUGGGACCCA [C4G G74U] — lower, 0.111
- GGCGGGCAUGGUCCCAGCCUCCUCGCUGGCGCCGGCUGGGCAACAUUCCGAGGGGACCGUCCCCUCGGUAAUGCCGAAUGGGACCCA [C4G G74C] — lower, 0.0386
- GGCGGGCAUGGCCCCAGCCUCCUCGCUGGCGCCGGCUGGGCAACAUUCCGAGGGGACCGUCCCCUCGGUAAUGGCGAAUGGGACCCA [C4G U12C] — lower, 0.0665
- GGCGGGCAUGGGCCCAGCCUCCUCGCUGGCGCCGGCUGGGCAACAUUCCGAGGGGACCGUCCCCUCGGUAAUGGCGAAUGGGACCCA [C4G U12G] — higher, 0.18
- GGCGGGCAUGGUCCCAGCCUCCUCGCUGGCGCCGGCUGUGCAACAUUCCGAGGGGACCGUCCCCUCGGUAAUGGCGAAUGGGACCCA [C4G G39U] — lower, 0.0346
- GGCGGGCAUGGUCCCAGCCUCCUCGCUGGCGCCGGCUGGGCAACAUUCCGAGGGGACCGUCCCCUCGGAAAUGGCGAAUGGGACCCA [C4G U69A] — higher, 0.192
- GGCGGGCAUGGUCCCAGCCUCCUCGCUGGCGCCGGCUGGGCAACAUUCCGAGGGGACCGUCCCCUCGAUAAUGGCGAAUGGGACCCA [C4G G68A] — higher, 0.309
